Experiment [1] has as its target T1, B7-H3 on human tumor cell lines (HT29, NCI-N87, HCC1806, HCC827, A375) (human, UniProt Q5ZPR3 29-534).
T1 construct: whole, on cells
T1 sequence (looked up): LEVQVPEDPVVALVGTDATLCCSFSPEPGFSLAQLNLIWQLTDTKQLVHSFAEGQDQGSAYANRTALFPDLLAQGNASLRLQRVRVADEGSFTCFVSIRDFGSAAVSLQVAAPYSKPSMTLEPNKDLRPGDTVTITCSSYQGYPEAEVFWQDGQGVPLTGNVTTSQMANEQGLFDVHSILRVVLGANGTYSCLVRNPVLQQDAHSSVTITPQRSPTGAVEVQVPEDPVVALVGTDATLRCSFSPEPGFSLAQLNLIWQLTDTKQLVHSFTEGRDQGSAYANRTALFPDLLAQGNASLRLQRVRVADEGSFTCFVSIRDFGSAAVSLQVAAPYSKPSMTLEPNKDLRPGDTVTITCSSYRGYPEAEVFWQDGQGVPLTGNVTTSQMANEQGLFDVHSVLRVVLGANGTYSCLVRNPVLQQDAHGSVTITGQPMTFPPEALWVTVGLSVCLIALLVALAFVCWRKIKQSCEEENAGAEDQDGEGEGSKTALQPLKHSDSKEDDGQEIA
Description: flow cytometry on HCC827 cells (experiment 2). Background: Flow cytometry measures light scatter and fluorescence of single cells or particles in a stream.

Experiment [2] addresses T2, rat B7-H3-his protein (rat, UniProt Q7TPB4 29-248, limits assumed).
T2 construct: not shown: His tag
T2 sequence (looked up): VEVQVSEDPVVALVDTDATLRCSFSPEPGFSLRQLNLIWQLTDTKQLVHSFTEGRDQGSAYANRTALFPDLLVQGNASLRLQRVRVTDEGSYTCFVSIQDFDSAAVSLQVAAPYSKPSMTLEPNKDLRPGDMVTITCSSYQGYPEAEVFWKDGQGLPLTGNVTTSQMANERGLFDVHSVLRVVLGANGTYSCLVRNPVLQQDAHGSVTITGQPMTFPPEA
Briefly: BLI (ForteBio), ADC captured on Protein A sensor (result 2). On the technique in general: BLI is a label-free optical method that tracks binding on a fibre tip over time.

Experiment [3] addresses T3, human B7-H3-2Ig-his protein (human, UniProt Q5ZPR3-2 29-245, limits assumed).
T3 construct: the 2Ig form is its isoform 2; not shown: His tag
T3 sequence (looked up): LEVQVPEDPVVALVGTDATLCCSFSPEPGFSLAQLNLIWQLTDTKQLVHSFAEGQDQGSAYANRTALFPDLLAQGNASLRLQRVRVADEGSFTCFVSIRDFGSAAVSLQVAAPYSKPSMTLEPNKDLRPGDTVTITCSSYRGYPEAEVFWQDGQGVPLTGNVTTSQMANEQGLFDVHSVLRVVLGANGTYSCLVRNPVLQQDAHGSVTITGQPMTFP
Briefly: BLI (ForteBio), ADC on Protein A sensor, antigen 200-3.125 nM, 1:1 global fit (result 2).

Experiment [4] deals with monkey B7-H3-his protein (monkey). Described as above.
Experiment [5] deals with T4, human B7-H3-4Ig-his protein (human, UniProt Q5ZPR3 29-461, limits assumed).
T4 construct: not shown: His tag
T4 sequence (looked up): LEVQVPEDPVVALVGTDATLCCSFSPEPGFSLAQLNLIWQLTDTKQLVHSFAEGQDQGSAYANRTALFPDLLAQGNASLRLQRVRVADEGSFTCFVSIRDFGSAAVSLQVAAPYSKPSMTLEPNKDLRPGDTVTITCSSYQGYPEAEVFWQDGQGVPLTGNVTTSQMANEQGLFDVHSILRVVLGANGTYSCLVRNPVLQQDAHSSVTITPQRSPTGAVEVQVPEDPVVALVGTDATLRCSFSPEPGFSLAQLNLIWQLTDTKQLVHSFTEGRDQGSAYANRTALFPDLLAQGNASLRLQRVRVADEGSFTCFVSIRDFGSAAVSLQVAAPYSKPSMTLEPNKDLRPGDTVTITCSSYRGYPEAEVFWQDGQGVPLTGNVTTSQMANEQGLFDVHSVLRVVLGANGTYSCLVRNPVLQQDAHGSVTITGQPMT
The experiment is described as above.

Experiment [6] addresses T1, B7-H3 on human tumor cell lines (HT29, …). Description: flow cytometry on HT29 cells (experiment 2).

These results are taken from patent EP4603109A1 (Sichuan Kelun-Biotech Biopharmaceutical Co., Ltd., dated 2024).

For orientation: EC50 means the concentration needed to bring the measured effect to its halfway point. By Kd is commonly meant the free concentration of one partner at which half of the binding sites on the other are occupied at equilibrium, for simple one-to-one binding.

B1: ADC 17 (2#8890-B-03, DAR 8) (antibody, human IgG1, kappa, V domains shown)
VH: QVQLQESGPGLVQPSGTLSLTCAVSGGSDSSTNWWTWVRQSPGQGLEWIGEISPIGFTSYSPSLRSRVTISVDKSKTQFSLKLSSVTAADTAVYYCARDRLYFAFWGQGTLVTVSS
VL: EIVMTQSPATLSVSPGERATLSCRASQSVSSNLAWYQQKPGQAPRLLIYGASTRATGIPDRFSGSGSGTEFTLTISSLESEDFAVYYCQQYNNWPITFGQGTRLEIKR
modifications: cysteine sulfhydryls carry drug-linker B-03 (sites not stated; DAR 7.82 per antibody)
As for B1, the half-maximal effective concentration (EC50) was 8.05 ng/mL in experiment [1] and 3.21 ng/mL in experiment [6]. Also, the binding result in experiment [2] is on record as “no binding (tested: 200 nM (highest antigen concentration))”. The equilibrium dissociation constant (Kd) in experiment [3] turned out to be 42 nM; in experiment [4] it was 2.57 nM; in experiment [5], 1.04 nM.
